Laboratory results as given in article PMC2675061.

How the values were obtained:
PTP-SL 147-549 (C480S) = experiment: ITC; ERK2 (75-100 µM) injected into PTP-SL (8-10 µM) in the cell, 30 °C; single-site binding model
[1] = target: PTP-SL full cytoplasmic region (aa147-549); experiment: SEC; Superdex 200 HR 10/30 analytical column; 10 mM Hepes, 150 mM NaCl, 0.1 mM EDTA, 5 mM DTT, pH 7.5, no SDS; 100 µl sample, 0.5 ml/min; apparent MW against Bio-Rad gel filtration standard

Substance	Ka (PTP-SL 147-549 (C480S))	Kd (PTP-SL 147-549 (C480S))	dH (PTP-SL 147-549 (C480S))	stoichiometry N (PTP-SL 147-549 (C480S))	stoichiometry N [1]
ERK2 (from UniProt P63086 1-358) (enzyme)	6.6e+06 M⁻¹	150 nM	-21 kcal/mol	1.06	
PTP-SL full cytoplasmic region (aa147-549) (domain or fragment)					2
